The target of this experiment is recombinant Hbl B’ of B. cereus strain F837/76 (Bacillus cereus strain F837/76). In words: SPR; Biacore S200; rHbl B’ amine-coupled (350 RU) on a CM5 chip; rHbl L1, L2 or B injected at 7.8125 nM to 2 µM, 30 µl/min, 20°C; running buffer PBS, 1 mM DTT, 0.005% Tween 20; 1:1 binding model; three experiments. For orientation: In SPR one partner is held on a chip, and binding of the other changes the refractive index at the surface.

For recombinant Hbl L1 (natural protein), the dissociation constant Kd (in general, a measure of binding affinity in units of concentration) is 131 nM.

The values are drawn from publication PMC8932913.
